Source: CN116693678A

What was measured:
[1] = biological target: 肺炎支原体天然抗原(购自Microbix) (Mycoplasma pneumoniae); assay: indirect ELISA on coated antigen (2 ug/ml), antibody 0 ng/ml (blank well)
[2] = biological target: 肺炎支原体天然抗原(购自Microbix) (Mycoplasma pneumoniae); assay: indirect ELISA on coated antigen (2 ug/ml), antibody 4.12 ng/ml
[3] = biological target: 肺炎支原体天然抗原(购自Microbix) (Mycoplasma pneumoniae); assay: indirect ELISA on coated antigen (2 ug/ml), antibody 1.37 ng/ml
[4] = biological target: 肺炎支原体天然抗原(购自Microbix) (Mycoplasma pneumoniae); assay: indirect ELISA on coated antigen (2 ug/ml), antibody 0.15 ng/ml
[5] = biological target: 肺炎支原体天然抗原(购自Microbix) (Mycoplasma pneumoniae); assay: indirect ELISA on coated antigen (2 ug/ml), antibody 12.35 ng/ml
[6] = biological target: 肺炎支原体天然抗原(购自Microbix) (Mycoplasma pneumoniae); assay: indirect ELISA on coated antigen (2 ug/ml), antibody 0.46 ng/ml

Row | Molecule | OD值 (450nm, 参考630nm) [1] [OD] | OD值 (450nm, 参考630nm) [2] [OD] | OD值 (450nm, 参考630nm) [3] [OD] | OD值 (450nm, 参考630nm) [4] [OD] | OD值 (450nm, 参考630nm) [5] [OD] | OD值 (450nm, 参考630nm) [6] [OD]
1 | Anti-MP-11F5mut1 (antibody, mouse IgG1, kappa, V domains shown) VH: QVQLQQSGPELVKPGALVKISCKASGYTFTSFDINWVKQRPGQGLEWIGYIYPGDGSTKYNEKFKGKATLTADKSSSTAYMQFSSLTSENSAVYFCTRKGGWGAGHSAMDYWGQGTSVTVSS VL: DIQMTQTTSSLSASLGDRVTISCRASQAIGNYLNWYQQRPDGTVKLLIYYTSRKNSGAPSRFSGSGSGTDYSITISNLDQEDIATYFCQQGYTTPYTFGGGTKLEIKR | 0.038 | 0.815 | 0.295 | 0.156 | 1.89 | 0.201
2 | Anti-MP-11F5mut4 (antibody, mouse IgG1, kappa, V domains shown) VH: QVQLQQSGPELVKPGALVKISCKASGYTFTSFDINWVKQRPGQGLEWIGYIYPGDGSTKYNEKFKGKATLTADKSSSTAYMQFSSLTSENSAVYFCTRKGGWGAGHSAMDYWGQGTSVTVSS VL: DIQMTQTTSSLSASLGDRVTISCRASQAISNYINWYQQRPDGTVKLLIYYTSRKNSGAPSRFSGSGSGTDYSLTISNLDQEDIATYFCQQGYTTPYTFGGGTKLEIKR | 0.042 | 1.92 | 1.26 | 0.374 | 1.96 | 0.49
3 | Anti-MP-11F5mut5 (antibody, mouse IgG1, kappa, V domains shown) VH: QVQLQQSGPELVKPGALVKISCKASGYTFTSFDINWVKQRPGQGLEWIGYIYPGDGSTKYNEKFKGKATLTADKSSSTAYMQFSSLTSENSAVYFCTRKGGWGAGHSAMDYWGQGTSVTVSS VL: DIQMTQTTSSLSASLGDRVTISCRASQAISNYLNWYQQRPDGTVKLLIYYTSRKNSGAPSRFSGSGSGTDYSLTISNIDQEDIATYFCQQGYTTPYTFGGGTKLEIKR | 0.038 | 0.837 | 0.316 | 0.163 | 2.02 | 0.241

Now from value to molecule:

Row | OD值 (450nm, 参考630nm) [1] [OD] | OD值 (450nm, 参考630nm) [2] [OD] | OD值 (450nm, 参考630nm) [3] [OD] | OD值 (450nm, 参考630nm) [4] [OD] | OD值 (450nm, 参考630nm) [5] [OD] | OD值 (450nm, 参考630nm) [6] [OD] | Molecule
4 | 0.015 | 0.499 | 0.208 | 0.068 | 1.21 | 0.111 | 对照 (antibody)
5 | 0.063 | 0.85 | 0.445 | 0.174 | 1.92 | 0.276 | Anti-MP-11F5mut6 (antibody, mouse IgG1, kappa, V domains shown) VH: QVQLQQSGPELVKPGALVKISCKASGYTFTSFDINWVKQRPGQGLEWIGYIYPGDGSTKYNEKFKGKATLTADKSSSTAYMQFSSLTSEDSAVYFCTRKGGWGAGHSAMDYWGQGTSVTVSS VL: DIQMTQTTSSLSASLGDRVTISCRASQAISNYINWYQQRPDGTVKLLIYYTSRKNSGAPSRFSGSGSGTDYSLTISNLDQEDIATYFCQQGYTTPYTFGGGTKLEIKR
6 | 0.034 | 1.64 | 1.27 | 0.489 | 1.93 | 0.56 | Anti-MP-11F5mut8 (antibody, mouse IgG1, kappa, V domains shown) VH: QVQLQQSGPELVKPGALVKISCKASGYTFTSFDINWVKQRPGQGLEWIGYIYPGDGSTKYNEKFKGKATLTADKSSSTAYMQFSSLTSEDSAVYFCTRKGGWGAGHSAMDYWGQGTSVTVSS VL: DIQMTQTTSSLSASLGDRVTISCRASQAISNYINWYQQRPDGTVKLLIYYTSRKNSGAPSRFSGSGSGTDYSLTISNIDQEDIATYFCQQGYTTPYTFGGGTKLEIKR
7 | 0.032 | 1.51 | 0.643 | 0.365 | 1.91 | 0.4 | Anti-MP-11F5mut7 (antibody, mouse IgG1, kappa, V domains shown) VH: QVQLQQSGPELVKPGALVKISCKASGYTFTSFDINWVKQRPGQGLEWIGYIYPGDGSTKYNEKFKGKATLTADKSSSTAYMQFSSLTSENSAVYFCTRKGGWGAGHSAMDYWGQGTSVTVSS VL: DIQMTQTTSSLSASLGDRVTISCRASQAISNYINWYQQRPDGTVKLLIYYTSRKNSGAPSRFSGSGSGTDYSLTISNIDQEDIATYFCQQGYTTPYTFGGGTKLEIKR
